Laboratory results published in US20140242080A1 (Hoffmann-La Roche, published 2014).

B1: 2 + 1 IgG Crossfab; VH/VL exchange (LC007/V9) (anti-MCSP/anti-huCD3) (bispecific antibody)
chain 1: not shown
chain 2: DIVLTQSPSSLSASLGDRVTISCSASQGIRNYLNWYQQRPDGTVKLLIYYTSSLHSGVPSRFSGSGSGTDYSLTISNLEPEDIATYYCQQYSKLPWTFGGGTKLEIKRTVAAPSVFIFPPSDEQLKSGTASVVCLLNNFYPREAKVQWKVDNALQSGNSQESVTEQDSKDSTYSLSSTLTLSKADYEKHKVYACEVTHQGLSSPVTKSFNRGEC
chain 3: DIQMTQSPSSLSASVGDRVTITCRASQDIRNYLNWYQQKPGKAPKLLIYYTSRLESGVPSRFSGSGSGTDYTLTISSLQPEDFATYYCQQGNTLPWTFGQGTKVEIKSSASTKGPSVFPLAPSSKSTSGGTAALGCLVKDYFPEPVTVSWNSGALTSGVHTFPAVLQSSGLYSLSSVVTVPSSSLGTQTYICNVNHKPSNTKVDKKVEPKSCGGGGSGGGGSEVQLQESGPGLVKPSQSLSLTCSVTGYSITSGYYWNWIRQFPGNKLEWMGYITYDGSNNYNPSLKNRISITRDTSKNQFFLKLNSVTTEDTATYYCADFDYWGQGTTLTVSSASTKGPSVFPLAPSSKSTSGGTAALGCLVKDYFPEPVTVSWNSGALTSGVHTFPAVLQSSGLYSLSSVVTVPSSSLGTQTYICNVNHKPSNTKVDKKVEPKSCDKTHTCPPCPAPEAAGGPSVFLFPPKPKDTLMISRTPEVTCVVVDVSHEDPEVKFNWYVDGVEVHNAKTKPREEQYNSTYRVVSVLTVLHQDWLNGKEYKCKVSNKALGAPIEKTISKAKGQPREPQVCTLPPSRDELTKNQVSLSCAVKGFYPSDIAVEWESNGQPENNYKTTPPVLDSDGSFFLVSKLTVDKSRWQQGNVFSCSVMHEALHNHYTQKSLSLSPGK
chain 4: EVQLVESGGGLVQPGGSLRLSCAASGYSFTGYTMNWVRQAPGKGLEWVALINPYKGVSTYNQKFKDRFTISVDKSKNTAYLQMNSLRAEDTAVYYCARSGYYGDSDWYFDVWGQGTLVTVSSASVAAPSVFIFPPSDEQLKSGTASVVCLLNNFYPREAKVQWKVDNALQSGNSQESVTEQDSKDSTYSLSSTLTLSKADYEKHKVYACEVTHQGLSSPVTKSFNRGEC
notes: vectors second heavy chain:light chain:first heavy chain-heavy chain Crossfab:light chain Crossfab 1:2:1:1; also called 2+1 IgG Crossfab (V9)
B2: 2 + 1 IgG Crossfab, inverted; CL/CH1 exchange (LC007/anti-CD3) (anti-MCSP/anti-huCD3) (bispecific antibody)
chain 1: B1 chain 2
chain 2: EVQLQESGPGLVKPSQSLSLTCSVTGYSITSGYYWNWIRQFPGNKLEWMGYITYDGSNNYNPSLKNRISITRDTSKNQFFLKLNSVTTEDTATYYCADFDYWGQGTTLTVSSASTKGPSVFPLAPSSKSTSGGTAALGCLVKDYFPEPVTVSWNSGALTSGVHTFPAVLQSSGLYSLSSVVTVPSSSLGTQTYICNVNHKPSNTKVDKKVEPKSCDKTHTCPPCPAPEAAGGPSVFLFPPKPKDTLMISRTPEVTCVVVDVSHEDPEVKFNWYVDGVEVHNAKTKPREEQYNSTYRVVSVLTVLHQDWLNGKEYKCKVSNKALGAPIEKTISKAKGQPREPQVCTLPPSRDELTKNQVSLSCAVKGFYPSDIAVEWESNGQPENNYKTTPPVLDSDGSFFLVSKLTVDKSRWQQGNVFSCSVMHEALHNHYTQKSLSLSPGK
chain 3: QAVVTQESALTTSPGETVTLTCRSSTGAVTTSNYANWVQEKPDHLFTGLIGGTNKRAPGVPARFSGSLIGDKAALTITGAQTEDEAIYFCALWYSNLWVFGGGTKLTVLSSASTKGPSVFPLAPSSKSTSGGTAALGCLVKDYFPEPVTVSWNSGALTSGVHTFPAVLQSSGLYSLSSVVTVPSSSLGTQTYICNVNHKPSNTKVDKKVEPKSC
chain 4: not shown
notes: also called 2+1 IgG Crossfab, inverted (anti-CD3)
B3: “1+1 IgG scFab, one armed” (anti-MCSP/anti-huCD3) (bispecific antibody)
chain 1: not shown
chain 2: not shown
chain 3: B1 chain 2

Tests used:
[1] = target: T1, human MCSP expressed on tumor cells (Colo-38, WM266-4, A375, MV-3, HCT-116) (human, UniProt Q6UVK1 30-2322); test: cell-based or functional assay
T1 sequence (Q6UVK1 30-2322): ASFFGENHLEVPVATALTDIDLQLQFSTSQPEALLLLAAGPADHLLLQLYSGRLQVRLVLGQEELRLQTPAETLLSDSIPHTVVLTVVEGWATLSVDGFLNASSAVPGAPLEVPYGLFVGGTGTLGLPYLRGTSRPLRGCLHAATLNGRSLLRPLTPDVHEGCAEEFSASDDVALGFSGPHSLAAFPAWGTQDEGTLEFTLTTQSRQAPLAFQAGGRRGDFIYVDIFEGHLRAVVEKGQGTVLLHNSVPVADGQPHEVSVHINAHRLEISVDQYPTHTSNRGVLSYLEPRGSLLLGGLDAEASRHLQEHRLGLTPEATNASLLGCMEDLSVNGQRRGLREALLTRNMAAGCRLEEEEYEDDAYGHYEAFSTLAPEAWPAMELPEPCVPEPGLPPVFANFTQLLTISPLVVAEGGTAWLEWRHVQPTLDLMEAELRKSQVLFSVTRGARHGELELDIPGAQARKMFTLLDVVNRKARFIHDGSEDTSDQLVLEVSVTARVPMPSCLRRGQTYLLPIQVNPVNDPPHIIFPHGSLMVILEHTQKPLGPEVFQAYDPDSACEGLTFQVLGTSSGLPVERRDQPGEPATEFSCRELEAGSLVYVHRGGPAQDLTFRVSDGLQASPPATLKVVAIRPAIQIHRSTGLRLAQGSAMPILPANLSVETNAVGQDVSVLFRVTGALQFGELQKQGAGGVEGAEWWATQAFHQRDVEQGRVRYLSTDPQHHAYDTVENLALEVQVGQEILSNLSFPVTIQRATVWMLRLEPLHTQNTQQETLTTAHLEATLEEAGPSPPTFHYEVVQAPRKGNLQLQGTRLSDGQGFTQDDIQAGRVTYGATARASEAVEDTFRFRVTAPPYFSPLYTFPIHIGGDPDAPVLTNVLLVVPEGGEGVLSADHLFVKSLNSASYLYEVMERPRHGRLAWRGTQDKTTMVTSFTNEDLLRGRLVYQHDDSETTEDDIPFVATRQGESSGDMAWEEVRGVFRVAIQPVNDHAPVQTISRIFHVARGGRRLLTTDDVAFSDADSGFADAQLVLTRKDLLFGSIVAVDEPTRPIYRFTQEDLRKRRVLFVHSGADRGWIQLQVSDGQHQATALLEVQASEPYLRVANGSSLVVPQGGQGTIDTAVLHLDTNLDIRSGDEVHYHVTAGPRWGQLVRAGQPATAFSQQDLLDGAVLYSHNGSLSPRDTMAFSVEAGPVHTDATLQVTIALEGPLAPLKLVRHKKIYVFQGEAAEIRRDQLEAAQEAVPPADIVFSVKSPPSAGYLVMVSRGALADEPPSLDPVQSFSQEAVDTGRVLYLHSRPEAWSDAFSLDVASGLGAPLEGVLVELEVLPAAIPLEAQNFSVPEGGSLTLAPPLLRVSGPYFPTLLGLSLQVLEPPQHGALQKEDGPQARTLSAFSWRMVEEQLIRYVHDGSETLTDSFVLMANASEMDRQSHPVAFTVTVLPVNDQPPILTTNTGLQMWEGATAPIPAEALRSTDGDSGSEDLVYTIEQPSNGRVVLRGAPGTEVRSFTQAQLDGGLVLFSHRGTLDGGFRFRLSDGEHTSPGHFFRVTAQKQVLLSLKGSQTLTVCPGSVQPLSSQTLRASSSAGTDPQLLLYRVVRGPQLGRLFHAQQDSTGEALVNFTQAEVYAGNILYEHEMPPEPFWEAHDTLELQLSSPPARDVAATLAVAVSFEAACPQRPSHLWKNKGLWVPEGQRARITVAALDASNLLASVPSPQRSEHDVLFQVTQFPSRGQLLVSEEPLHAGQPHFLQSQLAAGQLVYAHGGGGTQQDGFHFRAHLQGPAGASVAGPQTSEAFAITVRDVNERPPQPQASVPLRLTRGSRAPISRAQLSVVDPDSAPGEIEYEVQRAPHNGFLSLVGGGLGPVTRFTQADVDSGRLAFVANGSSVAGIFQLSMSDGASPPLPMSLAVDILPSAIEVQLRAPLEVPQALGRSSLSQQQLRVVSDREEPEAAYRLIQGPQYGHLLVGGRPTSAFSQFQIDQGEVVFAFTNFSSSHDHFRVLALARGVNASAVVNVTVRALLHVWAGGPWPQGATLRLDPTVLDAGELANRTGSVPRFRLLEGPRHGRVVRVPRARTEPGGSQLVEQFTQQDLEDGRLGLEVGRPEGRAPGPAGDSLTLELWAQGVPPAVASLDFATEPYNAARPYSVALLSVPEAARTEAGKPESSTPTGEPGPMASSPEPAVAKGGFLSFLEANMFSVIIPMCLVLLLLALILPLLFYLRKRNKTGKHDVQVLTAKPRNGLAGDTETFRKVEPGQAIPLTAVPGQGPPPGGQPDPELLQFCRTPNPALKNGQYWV

[2] = target: T1, human MCSP expressed on tumor cells …; test: cell-based or functional assay; remark: listed apart in the source
[3] = target: T1, human MCSP expressed on tumor cells …; test: flow cytometry on WM266-4 cells
Experimental: (§1) Binding of the different bispecific constructs to CD3 on Jurkat cells (ATCC #TIB-152), and the respective tumor antigen on target cells, was determined by FACS. Briefly, cells were harvested, counted and checked for viability. 0.15-0.2 million cells per well (in PBS containing 0.1% BSA; 90 μl) were plated in a round-bottom 96-well plate and incubated with the indicated concentration of the bispecific constructs and corresponding IgG controls (10 μl) for 30 min at 4° C. […] After the incubation, cells were centrifuged (5 min, 350×g), washed with 150 μl PBS containing 0.1% BSA, resuspended and incubated for further 30 min at 4° C. with 12 μl/well of a FITC- or PE-conjugated secondary antibody. Bound constructs were detected using a FACSCantoII (Software FACS Diva). The “(scFv)₂” molecule was detected using a FITC-conjugated anti-His antibody (Lucerna, #RHIS-45F-Z). For all other molecules, a FITC- or PE-conjugated AffiniPure F(ab′)2 Fragment goat anti-human IgG Fcγ Fragment Specific (Jackson Immuno Research Lab #109-096-098/working solution 1:20, or #109-116-170/working solution 1:80, respectively) was used. Cells were washed by addition of 120 μl/well PBS containing 0.1% BSA and centrifugation at 350×g for 5 min. A second washing step was performed with 150 μl/well PBS containing 0.1% BSA. […] EC50 values were calculated using the GraphPad Prism software.

[4] = target: T2, human CD3 expressed on Jurkat cells (human, UniProt P07766 23-207); test: flow cytometry on Jurkat cells
T2 construct: CD3 complex on Jurkat T cells; also called CD3 on Jurkat cells; huCD3
T2 sequence (P07766 23-207 limits assumed): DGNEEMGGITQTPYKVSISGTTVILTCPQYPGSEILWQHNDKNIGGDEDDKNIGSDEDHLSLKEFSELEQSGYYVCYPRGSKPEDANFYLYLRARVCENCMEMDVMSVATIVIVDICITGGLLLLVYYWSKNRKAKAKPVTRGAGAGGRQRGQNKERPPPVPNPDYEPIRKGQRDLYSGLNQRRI
Experimental: as §1
As a control, the equivalent maximum concentration of the corresponding IgGs and the background staining due to the labeled 2ndary antibody (goat anti-human FITC-conjugated AffiniPure F(ab′)2 Fragment, FcγFragment-specific, Jackson Immuno Research Lab #109-096-098) were assessed as well.

[5] = target: T1, human MCSP expressed on tumor cells …; test: flow cytometry on Colo-38 cells, 50 nM
Experimental: as §1
(§2) In a first experiment, different bispecific constructs targeting human MCSP and human CD3 were analyzed by flow cytometry for binding to human CD3 expressed on Jurkat, human T cell leukaemia cells, or to human MCSP on Colo-38 human melanoma cells.

[6] = target: T2, human CD3 expressed on Jurkat cells; test: flow cytometry on Jurkat cells, 50 nM
Experimental: as §1, §2

Binder	EC50 of T cell-mediated killing (LDH release), MV-3 cells, human PBMCs E:T 10:1, 21 h [1]	EC50 of T cell-mediated killing (LDH release), WM266-4 cells, human PBMCs E:T 10:1, 21 h [1]	EC50 [pM] of T cell-mediated killing (LDH release), MV-3 cells, human PBMCs E:T 10:1, about 24 h [2]	EC50 [pM] of T cell-mediated killing (LDH release), WM266-4 cells, human PBMCs E:T 10:1, about 24 h [2]	EC50 [3]	EC50 [4]	binding result [5]	binding result [6]
B1	9.2 pM	33.1 pM	10 pM	12.4 pM	0.95 nM	1.66 nM	–	–
B2	–	–	3 pM	7.1 pM	3.4 nM	32 nM	–	–
B3	–	–	–	–	–	–	binds	binds
